Patent EP4242225A1 (Consejo Superior De Investigaciones Científicas, dated 2023)

How the values were obtained:
Experiment in all cases: ELISA, biotin-labeled bispecific hcAb on plate-bound RBD-Fc
[1] = biological target: T1, RBD-Fc, kappa variant (B.1.617.1) (SARS-CoV-2; human, UniProt P0DTC2 332-534)
T1 construct: range 332-534; also called kappa RBD

[2] = biological target: T2, RBD-Fc, beta variant (B.1.351) (SARS-CoV-2; human, UniProt P0DTC2 332-534)
T2 construct: range 332-534; also called beta RBD

[3] = biological target: T3, RBD-Fc, delta variant (B.1.617.2) (SARS-CoV-2; human, UniProt P0DTC2 332-534)
T3 construct: range 332-534; also called delta RBD

[4] = biological target: T4, RBD-Fc, gamma variant (B.1.1.28.1 or P.1) (SARS-CoV-2; human, UniProt P0DTC2 332-534)
T4 construct: range 332-534; also called gamma RBD

Measured: binding result

B1: bispecific hcAb 1.29-1.26 (bispecific antibody)
heavy: QVQLVESGGGSVQAGGSLRLSCAASGYTINTDAVAWFRQAPGKGDERVAVIYTGSGNTNYADSVKGRFTISQDNAKNTVYLQMNSLKPEDTALYYCASGYYGASGYDFNNWGQGTQVTVSSGGGGSGGGGSGGGGSQVQLVESGGGLVQAGGSLRLSCAATGYTWSSVCMGWFRQAPGKEREGVAGIPSGRNRPYYADSVKGRFTISQDNAKNAVFLLMNSLKPEDTAIYYCAPCSAPHDPEYNYWGQGTQVTVSS
binds: [1] | [2] | [3] | [4]

B2: bispecific hcAb 1.29-1.10 (bispecific antibody)
heavy: QVQLVESGGGSVQAGGSLRLSCAASGYTINTDAVAWFRQAPGKGDERVAVIYTGSGNTNYADSVKGRFTISQDNAKNTVYLQMNSLKPEDTALYYCASGYYGASGYDFNNWGQGTQVTVSSGGGGSGGGGSGGGGSQVQLVESGGGSVQAGGSLRLSCAASGYTYSTCRKGWYRQAPGKERELVASITADGATYYLDSVKGRLTISQDNAKNTVYLQMNSLKPEDTAVYYCAASVKDFTCTFNSWGQGTQVTVSS
binds: [1] | [2] | [3] | [4]
